This test deals with T1, anti-CD47 antibody TJC4.
T1 construct: Tested as whole antibody; It was detected with an anti-human IgG4 secondary antibody, so it is human IgG4; also called therapeutic anti-CD47 antibody
Put plainly: indirect ELISA / blocking IC50 of the purified hybridoma antibody against anti-CD47 TJC4. From the text:
The binding of the anti-idiotypic antibodies generated in Examples 2 and 3 to anti-CD47 TJC4 antibody was characterized by indirect ELISA assay, and the IC₅₀ of the anti-idiotypic antibodies was used as a measure of their potential effectiveness in reducing interference by a therapeutic anti-CD47 antibody in a serological assay. Lower IC₅₀ values indicated stronger blocking ability. […] The IC₅₀ value for 9F9H11H8, and, therefore, the blocking ability of 9F9H11H8, was better than those of 37F8C4G12 and 34D8H11B5 (i.e., anti-idiotypic antibodies produced by other hybridoma clones).
(In general: An ELISA detects its analyte on a solid surface through an enzyme-linked reagent.)

T1 sequence (VH, as listed by the source, chain 1 of 2): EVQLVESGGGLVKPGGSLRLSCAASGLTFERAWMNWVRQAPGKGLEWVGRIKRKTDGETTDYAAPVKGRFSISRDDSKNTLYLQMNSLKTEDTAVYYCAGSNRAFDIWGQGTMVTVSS
T1 sequence (VL, as listed by the source, chain 2 of 2): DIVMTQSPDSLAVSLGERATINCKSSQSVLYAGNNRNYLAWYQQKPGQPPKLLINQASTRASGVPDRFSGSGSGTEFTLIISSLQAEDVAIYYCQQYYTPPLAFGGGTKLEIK

B1: anti-idiotypic antibody 9F9H11H8 (antibody, V domains shown)
VH: QIQLVQSGPELKKPGETVKISCKASGFTFTNYGMNWVRQAPGKGLKWMGWINTYTGQPTHADDFKGRFAFSLETSARTAFLEINSLQNEDTATYFCARGGMGVRLRYFDVWGAGTTVTVSS
VL: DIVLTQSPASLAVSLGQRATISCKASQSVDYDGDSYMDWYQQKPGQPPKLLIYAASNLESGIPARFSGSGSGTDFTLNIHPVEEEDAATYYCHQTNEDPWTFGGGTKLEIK
notes: also called 9F9H11F8
By IC50 is commonly meant the concentration that inhibits the measured activity by half. For the molecule B1, the IC50 was 0.382 µg/mL.

The values above are taken from patent US20230393144A1 (I MAB BIOPHARMA US, published 2023).
